These results are taken from the supplement of paper PMC11316812.

± gives the standard deviation of the averaged measurements.

One series concerns MCF7. In words: percentage of EdU-negative (G0-arrested) nuclei per well, 72 h; higher = more G0 arrest. The note with it: reference: sequence is the full UniProt precursor, the tested protein was the secreted form or ectodomain.
The subject of another series is hTERT-HMEC. The description is as above. The note with it: reference: sequence is the full UniProt precursor, the tested protein was the secreted form or ectodomain.
[1] abbreviates: protein concentration 0.03125 µM.
Setting [2] is: protein concentration 0.3125 µM.
[3] abbreviates: protein concentration 0.0257143 µM.
Where [4] appears, read: protein concentration 0.257143 µM.
The mark [5] stands for this setting: protein concentration 0.0225 µM.
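Further: secreted proteins added to cultured cells, EdU pulse at the end, nuclei found by Hoechst imaging, EdU status from nuclear versus surrounding ring intensity ratio, PBS as neutral control.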

Turning to “MAPAGVSLRATILCLLAWAGLAAGDRVYIHPFHLVIHNESTCEQLAKANAGKPKDPTFIPAPIQAKTSPVDEKALQDQLVLVAAKLDTEDKLRAAMVGMLANFLGFRIYGMHSELWGVVHGATVLSPTAVFGTLASLYLGALDHTADRLQAILGVPWKDKNCTSRLDAHKVLSALQAVQGLLVAQGRADSQAQLLLSTVVGVFTAPGLHLKQPFVQGLALYTPVVLPRSLDFTELDVAAEKIDRFMQAVTGWKTGCSLMGASVDSTLAFNTYVHFQGKMKGFSLLAEPQEFWVDNSTSVSVPMLSGMGTFQHWSDIQDNFSVTQVPFTESACLLLIQPHYASDLDKVEGLTFQQNSLNWMKKLSPRTIHLTMPQLVLQGSYDLQDLLAQAELPAILHTELNLQKLSNDRIRVGEVLNSIFFELEADEREPTESTQQLNKPEVLEVTLNRPFLFAVYDQSATALHFLGRVANPLSTA”, the “percentage of EdU-negative” value with MCF7 (setting [1]) is 23.9 ± 1.3%; in the series on MCF7 (setting [2]) it was 26.5 ± 1.4%; in the series on hTERT-HMEC (setting [1]), 5.56 ± 0.51%; with hTERT-HMEC (setting [2]), 5.41 ± 0.61%.
For the sequence “MAPAMESPTLLCVALLFFAPDGVLAVPQKPKVSLNPPWNRIFKGENVTLTCNGNNFFEVSSTKWFHNGSLSEETNSSLNIVNAKFEDSGEYKCQHQQVNESEPVYLEVFSDWLLLQASAEVVMEGQPLFLRCHGWRNWDVYKVIYYKDGEALKYWYENHNISITNATVEDSGTYYCTGKVWQLDYESEPLNITVIKAPREKYWLQFFIPLLVVILFAVDTGLFISTQQQVTFLLKIKRTRKGFRLLNPHPKPNPKNN”, the “percentage of EdU-negative” value in the series with MCF7 (setting [3]) stood at 24.7 ± 1.3%; in the series with MCF7 (setting [4]) it was 25.9 ± 1.7%; in the series on hTERT-HMEC (setting [3]), 4.74 ± 1.5%; in the series on hTERT-HMEC (setting [4]) it was 5.8 ± 0.29%.
On to “MAPAQRPLLPLLLLLLPLPPPPFARAEDAARANSDRYAVYWNRSNPRFHAGAGDDGGGYTVEVSINDYLDIYCPHYGAPLPPAERMEHYVLYMVNGEGHASCDHRQRGFKRWECNRPAAPGGPLKFSEKFQLFTPFSLGFEFRPGHEYYYISATPPNAVDRPCLRLKVYVRPTNETLYEAPEPIFTSNNSCSSPGGCRLFLSTIPVLWTLLGS”, for which the “percentage of EdU-negative” value was 25.4 ± 3% with MCF7 (setting [5]), 27.3 ± 0.45% in the series on MCF7 (protein concentration 0.225 µM), 5.69 ± 1.4% with hTERT-HMEC (setting [5]) and 9.78 ± 0.54% in the series with hTERT-HMEC (protein concentration 0.225 µM).
“MAPARAGCCPLLLLLLGLWVAEVLVRAKPKDMTSSQWFKTQHVQPSPQACNSAMSIINKYTERCKDLNTFLHEPFSSVAITCQTPNIACKNSCKNCHQSHGPMSLTMGELTSGKYPNCRYKEKHLNTPYIVACDPPQQGDPGYPLVPVHLDKVV [Q8TDE3]”: the “percentage of EdU-negative” value is 28.2 ± 0.91% in the series with MCF7 (setting [5]), 27.5 ± 4.3% with MCF7 (protein concentration 0.225 µM), 5.33 ± 0.52% in the series with hTERT-HMEC (setting [5]) and 5.09 ± 1.2% in the series on hTERT-HMEC (protein concentration 0.225 µM).
As for “MAPARAGFCPLLLLLLLGLWVAEIPVSAKPKGMTSSQWFKIQHMQPSPQACNSAMKNINKHTKRCKDLNTFLHEPFSSVAATCQTPKIACKNGDKNCHQSHGAVSLTMCKLTSGKHPNCRYKEKRQNKSYVVACKPPQKKDSQQFHLVPVHLDRVL [Q9H1E1]”, the “percentage of EdU-negative” value with MCF7 (setting [1]) came out at 24.6 ± 0.7%; with MCF7 (setting [2]), 26 ± 3.1%; in the series with hTERT-HMEC (setting [1]) it was 4.51 ± 0.69%; in the series with hTERT-HMEC (setting [2]), 6.66 ± 0.32%.
In the same order, the values of “MAPGSRTSLLLAFALLCLPWLQEAGAVQTVPLSRLFDHAMLQAHRAHQLAIDTYQEFEETYIPKDQKYSFLHDSQTSFCFSDSIPTPSNMEETQQKSNLELLRISLLLIESWLEPVRFLRSMFANNLVYDTSDSDDYHLLKDLEEGIQTLMGRLEDGSRRTGQILKQTYSKFDTNSHNHDALLKNYGLLYCFRKDMDKVETFLRMVQCRSVEGSCGF [P0DML2]” are 28.31 ± 0.052%, 25.8 ± 0.31%, 5.53 ± 0.26% and 6.34 ± 1.3%.
As to “MAPISLSWLLRLATFCHLTVLLAGQHHGVTKCNITCSKMTSKIPVALLIHYQQNQASCGKRAIILETRQHRLFCADPKEQWVKDAMQHLDRQAAALTRNGGTFEKQIGEVKPRTTPAAGGMDESVVLEPEATGESSSLEPTPSSQEAQRALGTSPELPTGVTGSSGTRLPPTPKAQDGGPVGTELFRVPPVSTAATWQSSAPHQPGPSLWAEAKTSEAPSTQDPSTQASTASSPAPEENAPSEGQRVWGQGQSPRPENSLEREEMGPVPAHTDAFQDWGPGSMAHVSVVPVSSEGTPSREPVASGSWTPKAEEPIHATMDPQRLGVLITPVPDAQAATRRQAVGLLAFLGLLFCLGVAMFTYQSLQGCPRKMAGEMAEGLRYIPRSCGSNSYVLVPV”, the “percentage of EdU-negative” value in the series with MCF7 (setting [5]) was 24.7 ± 2.4%; in the series with MCF7 (protein concentration 0.225 µM), 25.18 ± 0.043%; in the series on hTERT-HMEC (setting [5]), 4.91 ± 0.028%; in the series on hTERT-HMEC (protein concentration 0.225 µM), 5.92 ± 0.33%.
